# Laboratory results as given in patent publication US11673916B2, “Neuroprotective peptides and methods of their use” (University of Pittsburgh—Of the Commonwealth System of …, priority 2020, dated 2023).
# Target: T1, endogenous Kv2.1 channels (Rattus norvegicus, UniProt P15387)
# T1 construct: in order to visualize the distribution of endogenous Kv2.1 channels; endogenous in cells; host or cells: primary rat cortical neurons
# T1 sequence (P15387 1-857): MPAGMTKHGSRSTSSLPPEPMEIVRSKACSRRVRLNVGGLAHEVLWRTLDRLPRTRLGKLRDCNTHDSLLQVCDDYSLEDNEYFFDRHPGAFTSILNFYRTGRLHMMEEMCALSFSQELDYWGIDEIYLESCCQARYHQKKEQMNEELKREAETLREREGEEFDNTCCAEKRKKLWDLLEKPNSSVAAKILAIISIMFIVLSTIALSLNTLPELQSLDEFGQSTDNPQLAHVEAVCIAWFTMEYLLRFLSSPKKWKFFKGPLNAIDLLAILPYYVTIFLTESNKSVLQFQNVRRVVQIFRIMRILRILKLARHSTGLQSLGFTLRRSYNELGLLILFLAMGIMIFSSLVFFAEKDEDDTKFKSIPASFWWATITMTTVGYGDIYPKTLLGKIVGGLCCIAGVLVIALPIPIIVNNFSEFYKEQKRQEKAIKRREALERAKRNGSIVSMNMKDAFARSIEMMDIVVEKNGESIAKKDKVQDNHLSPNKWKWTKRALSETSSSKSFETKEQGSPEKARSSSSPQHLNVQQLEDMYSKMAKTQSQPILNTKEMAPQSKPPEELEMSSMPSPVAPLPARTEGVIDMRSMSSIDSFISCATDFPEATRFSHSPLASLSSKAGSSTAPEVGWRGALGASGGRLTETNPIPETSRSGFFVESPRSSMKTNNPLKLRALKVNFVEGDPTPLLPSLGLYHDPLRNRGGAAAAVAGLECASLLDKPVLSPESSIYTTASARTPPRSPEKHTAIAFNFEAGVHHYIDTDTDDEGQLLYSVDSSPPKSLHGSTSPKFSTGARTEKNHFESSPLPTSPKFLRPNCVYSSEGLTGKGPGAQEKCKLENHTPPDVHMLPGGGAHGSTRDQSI
# Experiment: Immunocytochemistry of endogenous Kv2.1 channel clusters in fixed cortical neurons
# Type: cell-based
# Settings: 10 μM, three-hour treatment, mean±SEM (FIG. 10B)
# Experimental: The in vitro Kv2.1 immunofluorescence experiment (FIG. 10) was carried out in DIV 21-26 primary rat neuronal cultures, as described above. Each coverslip was treated with either TAT-DP-2 or TAT-Sc-2 in its individual well to reach a final concentration of […] 3 hours, coverslips were transferred to PBS and immediately fixed with 4% paraformaldehyde/4% sucrose for 15 minutes. Coverslips were rinsed with PBS 3 times and then permeabilized with 0.25% triton-X-100 for 15 minutes. Cells were rinsed with PBS 3 times and then blocked with 2% BSA/10% normal goat serum for 1 hour at room temperature. […]
# To analyze Kv2.1 distribution in live primary cortical neurons, cells were transfected with both a tdTomato construct and a GFP-tagged Kv2.1 construct (O'Connell, et al., J Neurosci. 26: 9609-9618, 2006) and imaged on a Nikon A1+ confocal microscope (Nikon, Tokyo, Japan). […] For live images of transfected neurons, object count parameters were customized to define a Kv2.1 cluster as an area of high intensity GFP fluorescence (compared to background), measuring 0.05 μm^2 or larger (Schulien et al., J Physiol (Lond). 594: 2647-2659, 2016). Kv2.1 cluster density was calculated by normalizing the number of Kv2.1 clusters counted to the somatic area of each neuron (#Kv2.1 clusters/μm^2). […]
row,Sequence,mean Kv2.1 surface cluster density (endogenous channels)
1,"YGRKKRRQRRRDFSSIST [TAT-Sc-2, TAT-linked scramble control peptide]",0.056±0.005 #Kv2.1 clusters/μm^2 of neuronal soma
2,"YGRKKRRQRRRSIDSFTS [TAT-DP-2, TAT-linked declustering peptide 2]",0.030±0.003 #Kv2.1 clusters/μm^2 of neuronal soma
